# Test results published in patent US20240026407A1, “MODIFICATION OF SAPONINS” (GLAXOSMITHKLINE BIOLOGICALS SA, priority 2020, published 2024).
# B1: 1069 (protein, listed as Deltaproteobacteria bacterium)
# chain: MSLHDRSWVWNPDWNESRKETSAGGFVHFRREIDLEKRPSRPIFISITADTRYKLYINSKFVHHGPVKGDSQVWYYDELDIQPYMKAGKNTIAVRVLRLYHGTRFGTSFPRMPLGGLRIQHIRDSNDPPIIFSIETNGSWKTAVDRSSFLPIIEDDMFLHIFEAVDRRNDCKLQWTSAKPHKIFNAFGLVSPWKLSPRQIPFANFRPAIFSTIHNIRSTSNDAEVVDWQACLLAKSSNRTPVRLAAGTIHHVELEASHHLTAFMSFLFERPENPGAEIKITYSECYEDVPDNPQFRQKADRRDTSKKLLGPYDTFILGGRIYEQEDPSSAYHESGEDMVIFAPFHFRTFRFIAIDIAVNSDSDLIFHGVQITRTKYPLDVLAQFSPGGRDVTLPVQKMWETSILTLENCMHDCYEDCPFYEQLQYAMDTRSSALFTYYLSGDDRLARQAITQTRNSFQPSIGLTASRAPCEHLQIIPNFSLFWICMVADHYLHYGDMAFTSQFLPVCDAVLDSFRRRIDPDLGLVRCYDTDDFWDFVDWTEAWKPRGIPPAGKRTGYQTFSSSLYAYTLNLIAPAVEEYGRKGVAEEYRQSAAEVAASIWQHCFDGQYFTDGLAGSALNSEYSQHNQVWAILSGAVIGDEARQLLSKTLSRHDLTTPSIAMSFYTLQAVSLVGGDLYDLHFNDFWAPWIEQLSNNVTTWVEDNVSQRSECHAWGSAPIYEFMAEVVGLRPLEPGWRSISFKPRLALFETMDSKVPIPIRGSSGMAVAHVRWGRKGDDIAGVTIELKKGAENLRIPITLSHESGEDEVVISPFARDVRIQ
# B2: 1035 (protein, listed as Caulobacter segnis)
# chain: MVKAYRPSLVLVLALAFGPAASAEPIWITHPAAPSAPTVVRFERDLTLARKPGHFPVRVSADNRFILLVNGRRVGAGPATSDLGHWRYATLDLAPYLTRGSNHLEAVVWNYVKPEEPIPDGLSPAQKNAAAFRNQRNQTGPVAQISARLGFWFSAPGAPELDSGPTWRVQLDSARSAAPVMGQVAGFYAAGPSEIVDARVPLAAPVAATPALAPGEPSPWALSADPLPQMSYRAVDPGLVARTNLDEAKAFPRQPVTIPARKTVKILLARPAMVAAYPTLRVTGGKDASIKLTYAEALIDAKGRKGLRSEVGDRTIRGLSDRFTADGGARAFAPLWWRTWRYLEIEVQTADQPLRLQGLDVAETDYPFGQVGKFVSDDPELNRIWDIGWRTARIDAHETYMDTAYYEQLQYVGDTRLQALISYAVSGDPRLATQAMDAFGASRALGGVTEGAYPSRTSNPIPPFSLLWIGMLHDYWSRHPDPEPARRHLARAREVLAWFDGYLGPDGLMRKTPGWSFVDWAVKDGRLLSRDAFPSYDAQGRSCLLSLAYLGALRDMTDLEAALGEPSLAGRDRSRAEAIAAAVRDQCWAPDRGLFADTPDKASFSQHTNALAVLYDVAAPKDAAAILDRTVGQAGIDAPTGMISTSYYYAWYLVRAFDHAGQADRYLSLLDTWRGLLALDYTTWPEERGNTRSDTHAWSAHPTADLLELVAGIRPDAPGYGRLRVEPHLGALRRLDAAAATPQGPVEVKYRRKGQRLVVEVRKPAGLSGVFVWRGQSHALLGARTRLDLPAGD
# B3: 1010 (protein, listed as Paenibacillus mucilaginosus)
# chain: MEENRLWNARWIWHQSYPWTSDPGTHEMVWFRREFDVTDPHLAQLVVDISADSRYRLFLNGDSVSVGPCKGDRSTHYYETVDLSERLIAGTNVLAAQVLHFAPSGPHLLGVSGPLSIHRAVSGAMFLEGVLIEGNGHSQTLHSDEKWLCKKMPGFKLVPSPIIFFLGGFEDTDGSGLDHGWELPGYDDEGWTNAVIVCETGDKFGQLTPWQLAPRPIPPMREEPASFRGITKADDRAAIPGYEAMLRGGDTRSVRVEAGQSIWLELDAGELVTGYVTLKLRGGRESRIKLLYAESYEEPASNLHHRVKGIRDDAENGILLGEADHYTVAGVGIGESVERYEPFDFRTFRYLRLEAAAKDEPLEIVLLSYRDTGYPLNAQAAFSCSDPDYAALWELSLKTLRRCMHETYEDCPYYEQLQYTMDTRLQMMFTYAVSADDRLARRALFDYHSSALPSGMLQSRYPSEYRQVIPSFSLYWIHMLYEHYWHFGDRELIRRYVPTMTGVLGWFRRMLTPEGLVAPTPRAYWPYFDWCIDWENGTPPAHAKGPLTLLSQMLAAALQTASQIYEAVGWSDAAREAKADANAVNEALLRLCWRPERGLFADGPEVEEFSQHAQVWGVVCGAVQGEDAVRLLERTIEPQAEHMAQLSVPASYELFRMLSRHGLYGKASNVIDRWKAFLHLHLTTLPEVTDDNHPRSDCHAWSALPLSEFTGEILGVRPGAPGYSEIIVSPQPLQLSWAKGSAATRHGSVEVEWTLDEEAVFRMSGNGPVGIPLLVVLPNGKQVEFRHGGKFEASAKLRA
# B4: 1080 (protein, listed as Eisenbergiella massiliensis)
# chain: MANWIWYPGDFEIYHGMCQNFDREERGFFWPAYWHIADCRHHVVFHASCRLEKETAFRVTAKGIGHVLVKWEEKAPSWFPEGQPFYQEKKYTIGEWISCPAKEIGIDVVIGNRTGLPCIYVEGEVIRSGKNWTVTDFAAPEVPVGWNDMYVRAQQDPQIFEYTQELCRPVSTERVNGGVLYDFGRELTADTLIKINGEERPDQVTLCYGESRTEALDTQLCYLKQVLEIPGKKDSVPAGCASGPEREADCGASPFGRWESGQRYHTKLRAFRYIFVPEGENASLVTVEALYKYVDFPKRSSFSCSDGLINRIWEVADTTFRLASGIFFLDGVKRDRWIWSGDAYQSYFINQYLFFDKDICKRTILALRGNDPVTEHINTIVDYSMYWIISLENYYNMSGDLDFIRMVYPRMESLLRYCMEQTDGQGFIYGREGDWIYIDWAELDKEGILCAEQQLLARSYEAVASVRRLLGLDAEEFDVRKEALLKNIRQFFWDEEKGAFIDSYQSGRRNVTRHANIFAVLFGYADEAETESILHKVLLNEEVAAITTPYFKFYELEALAKLGRFEVVMDTLKSYWGGMLERGADTFWEEYKPEQPEEEQYGMYGDKYGKSLCHAWGASPIYLLGRYCMGVRPTGTAYETFAVEPQLELFDSFSCSFPVNEGTVWMDWKDGVLDVYTDKDGGVLKAAGKEYTLERGKHVVVKGR
# B5: 1056 (protein, listed as Solitalea canadensis)
# chain: MKPIITNLMLLLFAGAASAQSSKELYRSKEFSIYTDKVVQGKYIAKVLSPTEMTSDYQSPVNLYKSPKLTFKFSINGKDNEMISGQDHSINVMAKDGKFISPLITFGKHYVDKKNVPDNTYLEPNIDFTIRLDMRNVLNAFKTDGFYKGADGKKVYKEDFKGVYVAGSTLPLIWDFDNLVHHPDLQLKDDDGDGIYEVKVVLNEFKEQPSVSSNWKLKRNISAFPQYQASSPIENAMYNLSLDEMENAIEADSTLRTGKEWAGVWTRDVSYSIILSMAILQPKVAEYSLLRKVKNDRIIQDTGTGGAYPVSTDRMIWAVAAWEIYKTTGDKNWLSKAYSIIKNSIEDDWKNAYDPKTGLVKGESSFLDWREQEYPKWMQPADIYESECLGTNVVHFQANKVFAEMAILLGQKTVSDEHNAIAQTIKTGINNYLWIANKGYYGQYLYGRNYKILSPRSEALGEALAVIFGVADNERQKTIVRNTPVNSFGIPCFYPQLPNTPPYHNNAVWPFVQTYWALAAANAGNEQSVMESIAAIYRPAALFLTNKENFVADNGDFAGTQINSSNMLWSLSGNIALVYKVLFGMQFGADRLTFKPTVPQALAGTRMLTNFKYRNALLTISMQGFGTQIKSITMDGKPLVNAIVPASLTGKHTIKMVLTNMMESSSTTILPAYTSLTIPQVELKNDEIVWKKVPNAVSYVFIKNGDRIDNGIDTACIINNNSFAEYQVIAVDKNGVESFGSEPLQIIPEQTVKTIEIENLTSKADLPYKGYSGDGFVEISTQKNTILSFETTITEAGTYAINFKYANGNGPINTENKCAFRTLKLNNKQVGTVVLPQRGTNEWSEWGMSNSVIVELKAGTNKFDLTYETNNANMNGTVNQAMLDYVRIVKVE
# B6: 996 (protein, listed as Opitutus terrae)
# chain: MHRRFLAAILLGAPALLESAAAAPETPAAPPPAAAQPLAWPEVHRETKPWSRWWWFGNIADEKSVTAQLEACAAAGLGGLEITPIYGVRGYEDRFVPFLSPRWMELLRHTLVESRRLGLGIDLATGTGWPFGGPWLQPEDVAHTLAHRVYEIKPGERLGEPVRLTATGLVRVAGPRPVKLEELREPITANANLQELALDQVRFPKPMRLVSLMAFPLALAGVAPTPLDLTSRVRADGSLDWTAPADAGTWTLYALFAGPHGKMVERAAPGGEGFALDHFSSTALRAYLARFDAAFAEGHLLSDLPSAAGADSAPRLRAFFNDSYEVDDADGEANWTPRFLEEFQKRRGYDLRAHLPELLATTENDFSARVRSDYRETISDLLLDEFTNPWREWAHQHGALIRNQAHNSPANILDLYAASDIPEQEGNGFLAMKLASSAAHVSGKPLASAETATWLNEHFLTTLAELKQNTDEFLLAGINHVCYHGTALSPLDAAWPGFNFYASVELNPLNPFWRDFTALNAYVARAQSFLQSGTPDEDVLLYYNIHDRWAERGNGRMPHFGHGGRDPSGSLAATAAALHEAGVGFDYVSDRQLQKITPDRAIVVPQTTFMPEATLARLVELAAQGATILFVDHLPRSAPGLAGLNASGRFEQLLQKIQTQLAPSDVLSAAKLDGGQFLLGPGIRELLDRCPGIARESLRPFGLEFVRRRTDAGALYFLVNRSNQPIDRWIPLQSPAAAAALFDPMTGNAGLAAIHSSGPTGSASIPPAHSDGARASRAPTEIYLQLAPGESCVVQLHATPVAGPAWHYWQRAGEPHLLTGDWSVTFTAGGPALPAAAQLHALTSWTDFAGEAGRAFSGTAVYTRRFARPSGDAPAWELDLGTVGDSARVTLNGRELGVLIQPPWRVVIPANEWRDENALEIDVTNLAANRIADLDRRGASWKIFYNANFPARFRENVGPDRQFTAARWLPRNSGLLGPVKLTPLQKSDPTL
# Legend:
# Format in all cases: biochemical, Quillaja saponaria
# [1] = Experiment 6-1: screening of rhamnosidases for derhamnosylation of saponins in treated bark extract (2%), QS-17 2296 to QS-18 2150 (PAR %); conditions: TBE 2%, pH 7.5, 30 degC, 18 h; TIC peak area ratio percent of rhamnosylated starting saponin to derhamnosylated product, LCMS/MS; negative controls 4.876, 5.225
# [2] = Experiment 6-1: screening of rhamnosidases for derhamnosylation of saponins in treated bark extract (2%), desglucosyl-QS-17 2134 to QS-21 1988 (PAR %); conditions: TBE 2%, pH 7.5, 30 degC, 18 h; TIC peak area ratio percent, LCMS/MS; negative controls 2.719, 2.158
# [3] = Experiment 6-1: screening of rhamnosidases for derhamnosylation of saponins in treated bark extract (2%), QS-17 2310 to QS-18 2164 (PAR %); conditions: TBE 2%, pH 7.5, 30 degC, 18 h; TIC peak area ratio percent, LCMS/MS; negative controls 3.061, 2.429
# [4] = Experiment 6-1: specificity of rhamnosidases towards other rhamnose residues (C3 saccharide rhamnose, C28 saccharide rhamnose); conditions: TBE 2%, pH 7.5, 30 degC, 18 h; LCMS/MS; negative controls 0.18, 0.17
Molecule,QS-17 (PAR %) [1] [%],Peak75 (PAR %) [2] [%],Peak57 (PAR %) [3] [%],ratio PP/QS-21 [4]
B1,4.786,2.213,2.596,0.17
B2,4.825,2.427,2.987,0.17
B3,4.796,2.559,2.845,0.18
B4,4.792,2.434,2.882,0.17
B5,4.774,2.416,2.796,0.17
B6,4.778,2.221,3.190,0.16
